Target: PU.1 (PU pECE) (Mus musculus) (UniProt P17433)
Test: cell_activity
Conditions: 8 copies upstream of TK-CAT in HeLa; 1 copy 3.5-3.6 fold, 4 copies 3.9-4.3 fold

Substance: PU-1 (SV40 enhancer PU box)
- activity: 18.3 fold
